Among the data in patent US20220289850 (published 2022) are Kd values, retold here.

The target in this assay is T1, cynomolgus integrin avb8 (cynomolgus).
T1 chain 1: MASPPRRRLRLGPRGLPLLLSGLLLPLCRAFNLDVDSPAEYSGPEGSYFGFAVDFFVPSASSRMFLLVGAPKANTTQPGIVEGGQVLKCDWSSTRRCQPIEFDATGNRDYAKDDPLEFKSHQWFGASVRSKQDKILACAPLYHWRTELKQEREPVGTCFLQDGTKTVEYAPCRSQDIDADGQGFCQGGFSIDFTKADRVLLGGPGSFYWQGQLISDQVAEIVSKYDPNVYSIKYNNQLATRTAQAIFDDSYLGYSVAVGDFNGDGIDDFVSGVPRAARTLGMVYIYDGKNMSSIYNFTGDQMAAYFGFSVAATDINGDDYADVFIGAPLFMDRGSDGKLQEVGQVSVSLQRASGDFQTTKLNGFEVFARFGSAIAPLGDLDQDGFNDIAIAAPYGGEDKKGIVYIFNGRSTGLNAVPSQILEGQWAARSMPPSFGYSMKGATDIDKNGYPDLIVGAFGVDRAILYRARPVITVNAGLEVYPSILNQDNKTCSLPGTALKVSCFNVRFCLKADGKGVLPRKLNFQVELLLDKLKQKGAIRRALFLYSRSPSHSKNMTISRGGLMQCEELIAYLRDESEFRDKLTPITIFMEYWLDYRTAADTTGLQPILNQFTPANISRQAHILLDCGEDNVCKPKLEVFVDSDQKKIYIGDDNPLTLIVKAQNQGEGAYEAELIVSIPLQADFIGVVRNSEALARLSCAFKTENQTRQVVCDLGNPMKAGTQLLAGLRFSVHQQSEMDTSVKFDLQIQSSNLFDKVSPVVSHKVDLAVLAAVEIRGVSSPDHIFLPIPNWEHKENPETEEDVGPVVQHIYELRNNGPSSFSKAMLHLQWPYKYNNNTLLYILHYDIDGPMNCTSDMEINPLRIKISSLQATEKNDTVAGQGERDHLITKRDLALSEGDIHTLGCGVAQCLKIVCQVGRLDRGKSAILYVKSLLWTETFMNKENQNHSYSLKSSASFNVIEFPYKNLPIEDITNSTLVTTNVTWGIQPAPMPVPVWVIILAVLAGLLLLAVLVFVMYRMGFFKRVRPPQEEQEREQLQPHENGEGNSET
T1 chain 2: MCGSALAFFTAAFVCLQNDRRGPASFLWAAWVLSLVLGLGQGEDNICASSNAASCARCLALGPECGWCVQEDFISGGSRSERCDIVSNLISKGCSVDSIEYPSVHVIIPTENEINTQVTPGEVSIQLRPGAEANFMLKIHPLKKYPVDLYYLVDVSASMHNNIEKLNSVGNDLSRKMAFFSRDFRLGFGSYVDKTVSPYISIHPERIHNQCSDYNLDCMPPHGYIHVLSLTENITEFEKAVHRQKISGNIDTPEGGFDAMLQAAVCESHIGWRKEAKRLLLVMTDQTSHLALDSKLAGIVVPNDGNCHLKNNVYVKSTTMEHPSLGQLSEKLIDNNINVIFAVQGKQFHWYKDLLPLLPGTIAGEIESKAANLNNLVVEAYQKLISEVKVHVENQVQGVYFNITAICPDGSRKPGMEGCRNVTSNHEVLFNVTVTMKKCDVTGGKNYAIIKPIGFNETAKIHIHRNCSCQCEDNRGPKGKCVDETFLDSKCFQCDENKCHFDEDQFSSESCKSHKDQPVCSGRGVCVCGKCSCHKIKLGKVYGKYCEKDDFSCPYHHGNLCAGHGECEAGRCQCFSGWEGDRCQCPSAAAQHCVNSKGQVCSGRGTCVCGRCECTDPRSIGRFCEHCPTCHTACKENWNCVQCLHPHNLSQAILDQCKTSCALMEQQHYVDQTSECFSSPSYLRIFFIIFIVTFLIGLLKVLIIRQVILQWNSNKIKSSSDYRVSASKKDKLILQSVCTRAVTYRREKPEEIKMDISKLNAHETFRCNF
The experiment in a line: SPR 25C.

Residue numbers refer to the chain shown, from its start. Some results are limits rather than exact numbers.

B1: Mouse hybridoma ADWA-11 Fab (antibody, V domains shown)
VH: EVQLQQSGAELVRPGAFVKLSCKASGFNIKDYYMNWVLQRPEQGLEWIGWIDPDNGNTIYDPKFQGKASITADTSSNTAYLQLSSLTSEDTAVYYCARRLLMDYWGQGTSVTVSS
VL: DIVMTQAAPSVPVTPGESVSISCRSTKSLLHFNGNTYLFWFLQRPGQSPQRLIYYMSNLASGVPDRFSGRGSGTDFTLRISRVEAEDVGVYYCMQSLEYPFTFGTGTKLEIK
As usually defined, the Kd is the free concentration of one partner at which half of the binding sites on the other are occupied at equilibrium, for simple one-to-one binding. B1 came in with a Kd of 0.507 nM. This counts as sub-nanomolar.

B2: ADWA11 VH05/VK01 (VH05-2_VK01) Fab (antibody, V domains shown)
VH: EVQLVESGGGLVQPGGSLRLSCAASGFNIKDYYMNWVRQAPGKGLEWVGWIDPDNGNTIYDPKFQGRFTISADTSKNSAYLQMNSLRAEDTAVYYCARRLLMDYWGQGTLVTVSS
VL: DIQMTQSPSSLSASVGDRVTITCRSTKSLLHFNGNTYLFWYQQKPGKAPKRLIYYMSNLASGVPSRFSGSGSGTDFTLTISSLQPEDFATYYCMQSLEYPFTFGQGTKVEIK
The molecule B2 showed an equilibrium dissociation constant (Kd) of under 0.1 nM.

B3: ADWA11 2.4 Fab (antibody, V domains shown)
VH: B2 VH with N55Q, D61E
VL: B2 VL with L30S, N58S, M94Q, Q105G
For the molecule B3, the dissociation constant (Kd) is under 0.2 nM.
